Laboratory results as given in patent publication US20200347130A1 (JIANGSU HENGRUI MEDICINE, published 2020).

T1: Full-length human CD96 on CHO-S cells (human, UniProt P40200 22-585)
T1 construct: also called CD96-CHOs; hCD96-CHOs
T1 sequence: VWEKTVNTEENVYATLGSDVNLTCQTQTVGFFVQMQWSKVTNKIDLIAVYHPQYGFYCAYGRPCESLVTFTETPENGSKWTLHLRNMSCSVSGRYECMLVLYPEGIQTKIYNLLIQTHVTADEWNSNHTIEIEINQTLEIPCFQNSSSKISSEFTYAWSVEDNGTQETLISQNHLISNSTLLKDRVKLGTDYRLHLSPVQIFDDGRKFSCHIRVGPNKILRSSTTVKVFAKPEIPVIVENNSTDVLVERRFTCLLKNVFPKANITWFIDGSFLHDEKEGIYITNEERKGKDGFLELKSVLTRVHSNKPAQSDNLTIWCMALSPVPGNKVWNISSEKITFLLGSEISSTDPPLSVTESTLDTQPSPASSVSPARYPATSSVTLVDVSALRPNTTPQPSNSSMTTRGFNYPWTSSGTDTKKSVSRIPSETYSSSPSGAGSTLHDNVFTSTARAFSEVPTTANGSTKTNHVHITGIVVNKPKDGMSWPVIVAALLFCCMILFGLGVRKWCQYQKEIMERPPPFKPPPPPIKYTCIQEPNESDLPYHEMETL

T2: CD96 extracellular region with His tag (CD96-His) (human, UniProt P40200 22-519)
T2 construct: also called CD96-ECD-His; Bio-CD96-His (biotin-labelled form)
T2 sequence: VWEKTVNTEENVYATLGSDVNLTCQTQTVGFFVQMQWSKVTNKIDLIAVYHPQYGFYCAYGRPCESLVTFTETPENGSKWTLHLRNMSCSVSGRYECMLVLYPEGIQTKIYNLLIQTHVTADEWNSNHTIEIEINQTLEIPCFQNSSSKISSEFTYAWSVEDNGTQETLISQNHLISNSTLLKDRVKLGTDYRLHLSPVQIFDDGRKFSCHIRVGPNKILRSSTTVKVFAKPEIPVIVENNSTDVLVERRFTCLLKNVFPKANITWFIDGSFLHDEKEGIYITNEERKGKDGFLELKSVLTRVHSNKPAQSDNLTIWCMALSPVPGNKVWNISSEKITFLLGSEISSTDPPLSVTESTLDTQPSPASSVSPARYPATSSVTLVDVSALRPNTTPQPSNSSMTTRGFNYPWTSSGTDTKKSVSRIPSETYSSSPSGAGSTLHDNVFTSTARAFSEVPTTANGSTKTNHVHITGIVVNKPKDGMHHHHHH


Experiments:
[1] = target: T1, Full-length human CD96 on CHO-S cells; test: cell ELISA, fixed CD96-overexpressing CHO-S cells
Procedure: The binding capacity of the anti-CD96 antibody was tested by binding experiments of the antibody to human CD96 protein overexpressing CHO-S cells. The full-length CD96 plasmid was transfected into CHO-S cells by electrotransfection, and cells were then screened for two weeks under pressure for the detection of the expression of CD96. After the over-expressing cells were fixed at the bottom of the 96-well plate, the density of the signal after adding the antibody was used to judge the binding activity of the antibody to CD96 overexpressing CHO-S cells. The specific experimental method is as follows:
The cells were seeded at a density of 9×10⁴/100 μL/well in a 96-well plate and cultured overnight. After aspirating the supernatant, the plate was washed once with PBS, subsequently, 100 μl/well immunostaining fixation solution (Biyuntian, P0098) was added and fixed for one hour at room temperature, and the plate was washed three times with PBS. Once the liquid was discarded, 250 μl/well of 5% skim milk (BD, 232100) blocking solution diluted with PBS was added, and the plate was blocked in an incubator at 37° C. for 2.5 hours. After blocking, the blocking solution was discarded, the plate was washed 4 times with PBST buffer (pH 7.4 PBS containing 0.05% tween-20), followed by diluting 50 μl/well of different concentrations of the antibodies (hybridoma purification antibody or humanized antibody) to be tested the plate was incubated in an incubator at 37° C. for 2 hours. After incubation, the plate was wash 4 times with PBST. […] After washing the plate 4 times with PBST, 50 μl/well of TMB chromogenic substrate (KPL, Cat No. 52-00-03) was added, the plate was incubated at room temperature for 10-25 min, followed by adding 50 μl/well of 1M H₂SO₄ to stop the reaction. The absorption value was read at 450 nm with a NOVOStar microplate reader, and the EC50 value of the CD96 antibodies to CD96 overexpressing CHO-S cells was calculated (see FIG. 1 and Table 15).

[2] = target: T2, CD96 extracellular region with His tag …; test: SPR (Biacore), antibody captured, CD96-ECD-His as mobile phase
Source text: Protein A biosensor chip was used to capture antibodies to be tested, then CD96 antigen was flowed on the surface of the chip, and real time reaction signal was detected by Biacore to obtain the binding and dissociation curve. After the dissociation of each experimental cycle was completed, the biosensor chip was washed and regenerated with a glycine-hydrochloric acid regeneration solution (pH 1.5).

[3] = target: T2, CD96 extracellular region with His tag …; test: ELISA, CD96-His coated
Procedure: The binding capacity of the anti-CD96 antibody was tested by ELISA to determine the binding of the antibody to human CD96 protein. The His-tagged CD96 fusion protein was used to coat the microtiter plate, and the intensity of the signal after adding with the antibody was used for evaluating the binding activity of the antibody and CD96. The specific experimental method is as follows:
CD96-His with the sequence of SEQ ID NO: 4 prepared in Embodiment 1 was diluted to a concentration of 2 μg/ml with PBS buffer (Shanghai Yuanpei Biotechnology Co., Ltd. Cat No. B320), pH 7.4, added to a 96-well microtiter plate (Corning, Cat No. CLS3590-100EA) at a volume of 50 μl/well, and placed in an incubator at 37° C. for 2 hours. After discarding the liquid, 250 μl/well of 5% skim milk (BD, Cat No. 232100) blocking solution diluted with PBS was added, and the plate was incubated at 37° C. for 2.5 hours or at 4° C. overnight (16-18 hours) for blocking. After blocking, the blocking solution was discarded, and the plate was washed 4 times with PBST buffer (pH 7.4 PBS containing 0.05% tween-20). 50 μl/well of different concentrations of the antibodies to be tested (hybridoma purification antibody or humanized antibody) diluted with sample dilution was added, and the plate was incubated in an incubator at 37° C. for 1 hour. […] After washing the plate 4 times with PBST, 50 μl/well of TMB chromogenic substrate (KPL, Cat No. 52-00-03) was added, and the plate was incubated at room temperature for 5-15 minutes, followed by adding 50 μl/well of 1M H₂SO₄ to stop the reaction. The absorption value was read at 450 nm with a NOVOStar microplate reader, and the EC50 value of the binding of CD96 antibody to human CD96 was calculated (see Table 13).

[4] = target: T2, CD96 extracellular region with His tag …; test: blocking cell ELISA: antibody premixed with Bio-CD96-His (0.5 ug/mL), binding to fixed CD155-CHO cells
Procedure: CD155-CHO cells (constructed by Shanghai Hengrui) were seeded in 96-well culture plates at a density of 9×10⁴/100 μL/well and cultured overnight. After aspirating the supernatant, the plate was washed once with PBS, 100 μl/well of immunostaining fixation solution (Biyuntian, Cat No. P0098) was added and fixed for one hour at room temperature, and the plate was washed three times with PBS. After discarding the liquid, 250 μl/well of 5% skim milk (BD, Cat No. 232100) blocking solution diluted with PBS was added, and the plate was blocked in an incubator at 37° C. for 2.5 hours. After blocking, the blocking solution was discarded, subsequently, the plate was washed 4 times with PBST buffer (pH 7.4 PBS containing 0.05% tween-20). 50 μl/well of antigen-antibody pre-incubation solution (gradient concentrations of the hybridoma antibody to be tested and CD96-Fc at a final concentration of 0.5 μg/mL were premixed at 37° C. for 30 minutes, or gradient concentrations of humanized antibody samples and Bio-CD96-His at a final concentration of 0.5 μg/mL were premixed at 37° C. for 30 minutes) (Biotin-labeled kit, Dongren Chemical, Cat No. LK03) was added, and the plate was incubated in an incubator at 37° C. for 2 hours. After incubation, the reaction solution in the microtiter plate was discarded, the plate was washed 4 times with PBST, and 50 μl/well of HRP-labeled goat anti-human secondary antibody (Jackson Immuno Research, Cat No. 109-035-003) diluted with sample dilution or HRP-labeled streptavidin diluted with sample dilution (Sigma, Cat No. 52438) was added, followed by incubating at 37° C. for 1 hour. After washing the plate 4 times with PBST, 50 μl/well of TMB chromogenic substrate (KPL, Cat No. 52-00-03) was added, the plate was incubated at room temperature for 10-20 minutes, followed by adding 50 μl/well of 1M H₂SO₄ to stop the reaction. The absorption value was read at 450 nm with a NOVOStar microplate reader, and the EC50 value of the effect of CD96 antibody on blocking the binding between the antigens and CD155-CHO cells was calculated (see FIG. 2 and Table 16).

| EC50 [1] | Kd [2] | EC50 [3] | IC50 [4] | Binder |
| --- | --- | --- | --- | --- |
| 0.045 nM | 9.87 nM | 0.072 nM | – | h1722-005 (antibody, V domains shown, Only variable regions are tied to this name) VH: EVQLVQSGAEVKKPGSSVKVSCKASGGTFSDYWMHWVRQAPGQGLEWMGMLHPNSGTTSFNEKFKIRVTITADKSTSTAYMELSSLRSEDTAVYYCARDYSGPFAYWGQGTLVTVSS VL: DIQMTQSPSSLSASVGDRVTITCSASSSVNYIHWYQQKPGKAPKRWIYDTSKLASGVPSRFSGSGSGTDFTLTISSLQPEDFATYYCQQWRSNPLTFGQGTKLEIK |
| 0.028 nM | – | 0.085 nM | 0.096 nM | h1719-003 (antibody, V domains shown, also called M719-003) VH: EVTLKESGPVLVKPTETLTLTCTVSGFSLSSYGVSWVRQPPGKGLEWLGVIWGDGNTNYHSVLISRLTISKDTSKSQVVLTLTNMDPVDTATYYCAKNNYYGSRYGYPMDYWGQGTTVTVSS VL: DIQMTQSPSSVSASVGDRVTITCKATQDVGTAVAWYQQKPGKAPKLLIYWASTRHTGVPSRFSGSGSGTDFTLTISSLQPEDFATYYCQQYGSSVLTFGGGTKVEIK |
